In patent publication US20120245104A1, “NOVEL RETRO-INVERSO LEPTIN PEPTIDE ANTAGONISTS” (priority 2011, published 2012):
Where no end group is shown, it is not given here. [ ]: non-standard residue; d: D form.

T1: leptin receptor (ObR) (UniProt P48357 22-1165, limits assumed)
T1 sequence (looked up): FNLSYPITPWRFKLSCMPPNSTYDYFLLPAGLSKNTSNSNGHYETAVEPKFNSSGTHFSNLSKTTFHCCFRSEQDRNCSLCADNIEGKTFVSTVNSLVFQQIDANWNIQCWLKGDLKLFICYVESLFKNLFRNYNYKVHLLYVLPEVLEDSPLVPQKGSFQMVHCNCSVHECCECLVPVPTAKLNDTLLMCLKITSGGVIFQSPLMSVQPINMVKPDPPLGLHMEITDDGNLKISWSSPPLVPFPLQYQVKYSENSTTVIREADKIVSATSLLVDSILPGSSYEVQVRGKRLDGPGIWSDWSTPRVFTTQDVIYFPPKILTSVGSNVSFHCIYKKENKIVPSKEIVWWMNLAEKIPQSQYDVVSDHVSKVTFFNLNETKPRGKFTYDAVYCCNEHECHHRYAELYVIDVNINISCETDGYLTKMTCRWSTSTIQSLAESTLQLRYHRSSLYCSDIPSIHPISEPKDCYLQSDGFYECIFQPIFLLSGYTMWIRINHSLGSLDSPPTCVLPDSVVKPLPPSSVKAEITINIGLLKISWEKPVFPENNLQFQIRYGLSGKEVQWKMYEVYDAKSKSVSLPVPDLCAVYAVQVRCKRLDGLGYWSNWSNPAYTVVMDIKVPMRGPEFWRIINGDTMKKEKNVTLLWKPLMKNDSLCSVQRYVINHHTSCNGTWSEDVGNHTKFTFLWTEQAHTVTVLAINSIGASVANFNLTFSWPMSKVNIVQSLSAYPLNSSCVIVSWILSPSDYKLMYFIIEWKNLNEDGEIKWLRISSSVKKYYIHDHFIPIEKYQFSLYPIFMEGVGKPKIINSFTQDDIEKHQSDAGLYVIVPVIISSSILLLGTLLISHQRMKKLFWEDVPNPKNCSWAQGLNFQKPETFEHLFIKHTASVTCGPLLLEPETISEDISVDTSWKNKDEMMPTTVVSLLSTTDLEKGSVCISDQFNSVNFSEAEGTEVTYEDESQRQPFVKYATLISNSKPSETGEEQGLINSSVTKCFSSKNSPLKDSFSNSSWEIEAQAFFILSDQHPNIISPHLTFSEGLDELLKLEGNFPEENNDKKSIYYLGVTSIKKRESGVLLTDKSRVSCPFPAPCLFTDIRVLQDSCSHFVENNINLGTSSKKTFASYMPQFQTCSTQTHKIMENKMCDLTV


Tests used:
leptin receptor (ObR) [1] = target: T1, leptin receptor (ObR); assay: cell-based or functional assay
leptin receptor (ObR) [2] = target: T1, leptin receptor (ObR); assay: cell-based or functional assay; remark: listed apart in the source

| IC50 (half maximal inhibitory concentration), inhibition of leptin-induced cell growth (leptin receptor (ObR) [1]) | IC50, inhibition of leptin-induced growth of MCF-7 cells (leptin receptor (ObR) [2]) | Binder |
| --- | --- | --- |
| 20.7 nM |  | VQDDVKTLIKTIVTRINDI-NH2 [Truncated LPA-1 (6-24), T10 Val substitution] |
|  | 17.6 nM | H-[dI][dD][dN][dI][dR][dT][dV][dI][dT][dK][dI][dL][dT][dK][dI][dD][dD][dQ][dV]-NH2 (SMILES CC[C@@H](C)[C@@H](N)C(=O)N[C@H](CC(=O)O)C(=O)N[C@H](CC(N)=O)C(=O)N[C@@H](C(=O)N[C@H](CCCNC(=N)N)C(=O)N[C@@H](C(=O)N[C@@H](C(=O)N[C@@H](C(=O)N[C@@H](C(=O)N[C@H](CCCCN)C(=O)N[C@@H](C(=O)N[C@H](CC(C)C)C(=O)N[C@@H](C(=O)N[C@H](CCCCN)C(=O)N[C@@H](C(=O)N[C@H](CC(=O)O)C(=O)N[C@H](CC(=O)O)C(=O)N[C@H](CCC(N)=O)C(=O)N[C@@H](C(N)=O)C(C)C)[C@H](C)CC)[C@H](C)O)[C@H](C)CC)[C@H](C)O)[C@H](C)CC)C(C)C)[C@H](C)O)[C@H](C)CC) [Retro-inverso LPA-1(24-6), D-I10] |
|  | 16.9 nM | H-[dI][dD][dN][dI][dR][dT][dV][dI][dT][dK][dI][dL][dT][dK][dT][dD][dD][dQ][dV]-NH2 (SMILES CC[C@@H](C)[C@@H](N)C(=O)N[C@H](CC(=O)O)C(=O)N[C@H](CC(N)=O)C(=O)N[C@@H](C(=O)N[C@H](CCCNC(=N)N)C(=O)N[C@@H](C(=O)N[C@@H](C(=O)N[C@@H](C(=O)N[C@@H](C(=O)N[C@H](CCCCN)C(=O)N[C@@H](C(=O)N[C@H](CC(C)C)C(=O)N[C@@H](C(=O)N[C@H](CCCCN)C(=O)N[C@@H](C(=O)N[C@H](CC(=O)O)C(=O)N[C@H](CC(=O)O)C(=O)N[C@H](CCC(N)=O)C(=O)N[C@@H](C(N)=O)C(C)C)[C@H](C)O)[C@H](C)O)[C@H](C)CC)[C@H](C)O)[C@H](C)CC)C(C)C)[C@H](C)O)[C@H](C)CC) [Retro-inverso LPA-1(24-6), D-T10] |
| 88 nM |  | VQDDAKTLIKTIVTRINDI-NH2 [Truncated LPA-1 (6-24), T10 Ala substitution] |
|  | 11.8 nM | H-[dI][dD][dN][dI][dR][dT][dV][dI][dT][dK][dI][dL][dT][dK][dL][dD][dD][dQ][dV]-NH2 (SMILES CC[C@@H](C)[C@@H](N)C(=O)N[C@H](CC(=O)O)C(=O)N[C@H](CC(N)=O)C(=O)N[C@@H](C(=O)N[C@H](CCCNC(=N)N)C(=O)N[C@@H](C(=O)N[C@@H](C(=O)N[C@@H](C(=O)N[C@@H](C(=O)N[C@H](CCCCN)C(=O)N[C@@H](C(=O)N[C@H](CC(C)C)C(=O)N[C@@H](C(=O)N[C@H](CCCCN)C(=O)N[C@H](CC(C)C)C(=O)N[C@H](CC(=O)O)C(=O)N[C@H](CC(=O)O)C(=O)N[C@H](CCC(N)=O)C(=O)N[C@@H](C(N)=O)C(C)C)[C@H](C)O)[C@H](C)CC)[C@H](C)O)[C@H](C)CC)C(C)C)[C@H](C)O)[C@H](C)CC) [Retro-inverso LPA-1(24-6), D-L10] |
| 15.6 nM |  | NVIQISNVLENLRDLLHV-NH2 [Truncated LPA-2 (72-89), D79 Val substitution] |

Continued, binder first:

| Binder | IC50 (half maximal inhibitory concentration), inhibition of leptin-induced cell growth (leptin receptor (ObR) [1]) | IC50, inhibition of leptin-induced growth of MCF-7 cells (leptin receptor (ObR) [2]) |
| --- | --- | --- |
| H-[dV][dH][dL][dL][dD][dR][dL][dN][dE][dL][dD][dN][dS][dI][dQ][dI][dV][dN]-NH2 (SMILES CC[C@@H](C)[C@@H](NC(=O)[C@@H](CO)NC(=O)[C@@H](CC(N)=O)NC(=O)[C@@H](CC(=O)O)NC(=O)[C@@H](CC(C)C)NC(=O)[C@@H](CCC(=O)O)NC(=O)[C@@H](CC(N)=O)NC(=O)[C@@H](CC(C)C)NC(=O)[C@@H](CCCNC(=N)N)NC(=O)[C@@H](CC(=O)O)NC(=O)[C@@H](CC(C)C)NC(=O)[C@@H](CC(C)C)NC(=O)[C@@H](Cc1c[nH]cn1)NC(=O)[C@H](N)C(C)C)C(=O)N[C@H](CCC(N)=O)C(=O)N[C@@H](C(=O)N[C@@H](C(=O)N[C@H](CC(N)=O)C(N)=O)C(C)C)[C@H](C)CC) [Retro-inverso LPA-2(89-72), D-D79] |  | 19.4 nM |
| H-[dI][dD][dN][dI][dR][dT][dV][dI][dT][dK][dI][dL][dT][dK][dV][dD][dD][dQ][dV]-NH2 (SMILES CC[C@@H](C)[C@@H](N)C(=O)N[C@H](CC(=O)O)C(=O)N[C@H](CC(N)=O)C(=O)N[C@@H](C(=O)N[C@H](CCCNC(=N)N)C(=O)N[C@@H](C(=O)N[C@@H](C(=O)N[C@@H](C(=O)N[C@@H](C(=O)N[C@H](CCCCN)C(=O)N[C@@H](C(=O)N[C@H](CC(C)C)C(=O)N[C@@H](C(=O)N[C@H](CCCCN)C(=O)N[C@@H](C(=O)N[C@H](CC(=O)O)C(=O)N[C@H](CC(=O)O)C(=O)N[C@H](CCC(N)=O)C(=O)N[C@@H](C(N)=O)C(C)C)C(C)C)[C@H](C)O)[C@H](C)CC)[C@H](C)O)[C@H](C)CC)C(C)C)[C@H](C)O)[C@H](C)CC) [Retro-inverso LPA-1(24-6), D-V10] |  | 17.4 nM |
| H-[dV][dH][dL][dL][dD][dR][dL][dN][dE][dL][dL][dN][dS][dI][dQ][dI][dV][dN]-NH2 (SMILES CC[C@@H](C)[C@@H](NC(=O)[C@@H](CO)NC(=O)[C@@H](CC(N)=O)NC(=O)[C@@H](CC(C)C)NC(=O)[C@@H](CC(C)C)NC(=O)[C@@H](CCC(=O)O)NC(=O)[C@@H](CC(N)=O)NC(=O)[C@@H](CC(C)C)NC(=O)[C@@H](CCCNC(=N)N)NC(=O)[C@@H](CC(=O)O)NC(=O)[C@@H](CC(C)C)NC(=O)[C@@H](CC(C)C)NC(=O)[C@@H](Cc1c[nH]cn1)NC(=O)[C@H](N)C(C)C)C(=O)N[C@H](CCC(N)=O)C(=O)N[C@@H](C(=O)N[C@@H](C(=O)N[C@H](CC(N)=O)C(N)=O)C(C)C)[C@H](C)CC) [Retro-inverso LPA-2(89-72), D-L79] |  | 18.7 nM |
| H-[dV][dH][dL][dL][dD][dR][dL][dN][dE][dL][dI][dN][dS][dI][dQ][dI][dV][dN]-NH2 (SMILES CC[C@@H](C)[C@@H](NC(=O)[C@@H](CC(C)C)NC(=O)[C@@H](CCC(=O)O)NC(=O)[C@@H](CC(N)=O)NC(=O)[C@@H](CC(C)C)NC(=O)[C@@H](CCCNC(=N)N)NC(=O)[C@@H](CC(=O)O)NC(=O)[C@@H](CC(C)C)NC(=O)[C@@H](CC(C)C)NC(=O)[C@@H](Cc1c[nH]cn1)NC(=O)[C@H](N)C(C)C)C(=O)N[C@H](CC(N)=O)C(=O)N[C@H](CO)C(=O)N[C@@H](C(=O)N[C@H](CCC(N)=O)C(=O)N[C@@H](C(=O)N[C@@H](C(=O)N[C@H](CC(N)=O)C(N)=O)C(C)C)[C@H](C)CC)[C@H](C)CC) [Retro-inverso LPA-2(89-72), D-I79] |  | 9.7 nM |
| H-[dV][dH][dL][dL][dD][dR][dL][dN][dE][dL][dV][dN][dS][dI][dQ][dI][dV][dN]-NH2 (SMILES CC[C@@H](C)[C@@H](NC(=O)[C@@H](CO)NC(=O)[C@@H](CC(N)=O)NC(=O)[C@H](NC(=O)[C@@H](CC(C)C)NC(=O)[C@@H](CCC(=O)O)NC(=O)[C@@H](CC(N)=O)NC(=O)[C@@H](CC(C)C)NC(=O)[C@@H](CCCNC(=N)N)NC(=O)[C@@H](CC(=O)O)NC(=O)[C@@H](CC(C)C)NC(=O)[C@@H](CC(C)C)NC(=O)[C@@H](Cc1c[nH]cn1)NC(=O)[C@H](N)C(C)C)C(C)C)C(=O)N[C@H](CCC(N)=O)C(=O)N[C@@H](C(=O)N[C@@H](C(=O)N[C@H](CC(N)=O)C(N)=O)C(C)C)[C@H](C)CC) [Retro-inverso LPA-2(89-72), D-V79] |  | 13.6 nM |
